From patent US9056102B2, “VEGF-activated trail ligands” (The Regents of the University of California, priority 2005, dated 2015) come the findings set out here.

In data set [1] the test system is U87MG human glioblastoma cells. In words: Potentiation of R2FasL by chemotherapeutic agents, resazurin cell viability assay. Conditions: 72 hours drug (Bis VIII 1 μM, camptothecin 20 nM, etoposide 5 μM), then R2FasL 10 μL/well for 40 hours. The class given is cell-based. In general terms: Resazurin is reduced to fluorescent resorufin, in cell work by metabolically active cells.
Protocol: U87MG human glioblastoma cells were plated in 96-well plates in 100 μL of complete medium with 10% fetal calf serum at 25,000 cells/well. Forty-eight hours later cells were treated with either bisindolylmaleimide VIII (Bis VIII, final concentration 1 μM), camptothecin (final concentration 20 nM), etoposide (final concentration 5 μM), or DMSO vehicle (1 μL/well). Bis VIII, camptothecin, and etoposide (all from Biomol) were dissolved in DMSO and added at 1 μL/well. After 72 hours of drug exposure, cells were treated with FLAG antibody affinity-purified R2FasL solution (10 μL/well), and incubated for an additional 40 hours. Cell viability and cytotoxicity were assayed using the resazurin assay and the LDG release assay, respectively, as described above.

Data set [2] relates to Jurkat E6.1 human T cells. In words: Jurkat cell viability, resazurin (AlamarBlue) assay. The class given is cell-based. On the procedure:
Conditioned medium (0.001, 0.01, 0.1, 1, or 10 μL) from Cos7 cells transfected with pFLAG/R1[D2]FasL vector was added in the absence or presence of rhVEGF-165 (final concentration 2 nM). Twenty-two hours later cell viability was assayed using the resazurin assay (AlamarBlue reagent from BioSource). Conversion of AlamarBlue substrate to product by viable cells was determined by adding 20 μL of AlamarBlue to each well and measuring absorbance at 540 nm and […]. Calculation of % conversion of substrate to product was performed according to the manufacturer's protocol.
To investigate which growth factors activate R1[D2]FasL the following experiment was performed. […] All growth factors were used at a final concentration of 10 nM, and were from Peprotech or R&D Systems. Nineteen hours later cell viability was assayed using the resazurin assay as described above.
In a similar experiment, the concentration of the growth factors tested was varied. […] Conditioned medium from Cos7 cells transfected with either pFLAG/R2FasL vector or empty pFLAG vector was added (1 μL/well), in the absence or presence of rhVEGF-165 or rmVEGF-165 at the final concentrations of 0.001, 0.01, 0.1, 1, and 10 nM. Eighteen hours later cell viability was assayed using the resazurin assay as described herein.
To determine the ED50 for hVEGF-165 on R1[D2]FasL the following experiment was performed. […] Conditioned medium from Cos7 cells transfected with pFLAG/R1[D2]FasL vector was added (2 μL/well), in the absence or presence of rhVEGF-165 at 0, 0.01, 0.1, 1, 10, 100, 1,000, or 10,000 nM. Nineteen hours later cell viability was assayed using the resazurin assay as described above.
In a similar experiment the ED50 for hVEGF-165 on R2FasL was determined. […] Conditioned medium from Cos7 cells transfected with pFLAG/R2FasL vector was added in the volumes indicated, in the absence or presence of rhVEGF-165 at the final concentrations of […], 0.2 and 2 nM. Eighteen hours later cell viability was assayed using the resazurin assay. The ED50 for rhVEGF-165 was between 20 pM and 200 pM (FIG. 21B).

Data set [3] has as its system T-47D human breast cancer cells. In words: Cell death in breast cancer cells, photographed 24 hours after treatment. The format is cell-based. Conditions: 25 μL conditioned medium plus 2 nM VEGF-165, 24 hours. On the procedure:
T-47D human breast cancer cells were plated in 24-well plates (500,000 cells in 500 μl/well) and grown to confluence. Cells were treated with 25 μL/well of conditioned medium from Cos-7 cells transfected either with control plasmid pSV/Neo or plasmid FlkFasL. Cells were also treated with 2 nM VEGF-165 or without. Cells were photographed 24 hours after treatment.

Data set [4] relates to Jurkat cells. In words: Jurkat cell killing, viable cell counting after trypan blue staining. The format is cell-based, human. As to the method:
(§1) Apoptosis and cytotoxicity was assayed by three assays: cell counting, FACS analysis of Annexin V positive cells, and LDH (lactate dehydrogenase) release. For cell counting of Jurkat cells, 100 uL of cell suspension was mixed with an equal volume of Trypan blue stain (0.4%), and kept at room temperature for 2 minutes. Live cells were counted using a hemocytometer in triplicate. Mean number of cells/visual field and SEM were calculated using InStat statistical software. For FACS analysis, the Annexin-V-Fluos kit from Roche was used according to the manufacturer's protocol. […] The percent of the cell population that was apototic (Annexin-V-positive and propidium iodide-negative) was determined. […] 25 μL of supernatant in triplicate was mixed with LDH detection reagent, and LDH activity quantified by measuring absorbance at 492 nm. Mean and SEM was calculated using InStat statistical software.
Jurkat cells were plated in 24-well plates (500,000 cells in 500 μl/well) and were treated with increasing volumes of conditioned medium obtained from Cos-7 cells transfected either with either control plasmid pSV/Neo or plasmid pBJ/FlkFasL. […] Thirty-two hours later viable cells were counted after trypan blue staining. […]

Data set [5] concerns T-47D human breast cancer cells. In words: LDH release cytotoxicity assay in breast cancer cells. The class given is cell-based. On the procedure: Apoptosis and cytotoxicity was assayed by three assays: cell counting, FACS analysis of Annexin V positive cells, and LDH (lactate dehydrogenase) release. For cell counting of Jurkat cells, 100 uL of cell suspension was mixed with an equal volume of Trypan blue stain (0.4%), and kept at room temperature for 2 minutes. Live cells were counted using a hemocytometer in triplicate. Mean number of cells/visual field and SEM were calculated using InStat statistical software. For FACS analysis, the Annexin-V-Fluos kit from Roche was used according to the manufacturer's protocol. Briefly, after treatment with FlkFasL or control conditioned medium±VEGF-165 (2 nM, from Peprotech), Jurkat cells were pelleted and resuspended in 100 μL of Annexin-V-Fluos labeling solution (FITC-Annexin V plus propidium iodide) for 15 minutes at room temperature. FACS analysis was performed on a Becton Dickinson FACSCalibur™ using CellQuest Software, with gating to distinguish Annexin V-positive (apoptotic) versus negative cells, and propidium iodide-positive (i.e. necrotic) versus negative cells. The percent of the cell population that was apototic (Annexin-V-positive and propidium iodide-negative) was determined. […] 25 μL of supernatant in triplicate was mixed with LDH detection reagent, and LDH activity quantified by measuring absorbance at 492 nm. Mean and SEM was calculated using InStat statistical software. […]
On the technique in general: LDH in the medium is a marker of cell lysis.

The subject of data set [6] is Jurkat cells. In words: Induction of apoptosis by FACS analysis of Annexin V-positive/propidium iodide-negative cells. The format is cell-based, human. As to the method:
as §1
Jurkat cells were plated in 24-well plates (500,000 cells in 500 μl/well) and were treated with either 1 μL/well or 5 μL/well of conditioned medium obtained from Cos-7 cells transfected either with control plasmid pSV/Neo or plasmid pBJ/FlkFasL. […] Induction of apoptosis was assessed by FACS analysis of FITC-Annexin V-positive/propidium-iodide negative cells.
In general terms: In flow cytometry, cells or beads pass a laser one at a time.

“Also recorded” adds a separate entry of the source.

As to `Cn1cc(C2=C(c3cn(CCCN)c4ccccc34)C(=O)NC2=O)c2ccccc21` [BisVIII, bisindolylmaleimide VIII], the “potentiation of R2FasL apoptotic activity (cell viability)” value in data set [1] was “Potentiation of R2FasL apoptotic activity”.

`COc1cc([C@@H]2c3cc4c(cc3[C@@H](O[C@@H]3O[C@@H]5CO[C@@H](C)O[C@H]5[C@H](O)[C@H]3O)[C@H]3COC(=O)[C@H]23)OCO4)cc(OC)c1O` [etoposide]: in data set [1], the “potentiation of R2FasL apoptotic activity (cell viability)” value is given as “Potentiation of R2FasL apoptotic activity”.

B1: R1[D2]FasL: Second domain of human VEGFR1 (amino acids 129 to 230) fused via ARGTS linker to hFasL amino acids 139 to 281 (protein)
chain: MSALLILALVGAAVADYKDDDDKLAAASDTGRPFVEMYSEIPEIIHMTEGRELVIPCRVTSPNITVTLKKFPLDTLIPDGKRIIWDSRKGFIISNATYKEIGLLTCEATVNGHLYKTNYLTHRQTNTIIARGTSEKKELRKVAHLTGKSNSRSMPLEWEDTYGIVLLSGVKYKKGGLVINETGLYFVYSKVYFRGQSCNNLPLSHKVYMRNSKYPQDLVMMEGKMMSYCTTGQMWARSSYLGAVFNLTSADHLYVNVSELSLVNFEESQTFFGLYKL
modifications: FLAG tag, preprotrypsin leader
On to B1, for which the “induction of apoptosis (cell viability)” value in data set [2] (0.001-10 μL conditioned medium, absence or presence of 2 nM rhVEGF-165, 22 hours) is on record as “induces apoptosis in a VEGF-dependent manner”. For the same molecule, the “activation by growth factors (cell viability)” value in data set [2] (2 μL/well conditioned medium, rhVEGF-165, rmVEGF-164, rhVEGF-121, rhVEGF-165/rhPlGF-129 heterodimer, rhPlGF-129, each 10 nM, 19 hours) was “activated by all growth factors tested”.

B2: FlkFasL: Fusion of mouse Flk-1 (VEGFR-2) signal sequence and Ig-like domains 1-3, linker, human FasL amino acids 139-281; SEQ ID NO:22 (protein)
chain: MESKALLAVALWFCVETRAASVGLPGDFLHPPKLSTQKDILTILANTTLQITCRGQRDLDWLWPNAQRDSEERVLVTECGGGDSIFCKTLTIPRVVGNDTGAYKCSYRDVDIASTVYVYVRDYRSPFIASVSDQHGIVYITENKNKTVVIPCRGSISNLNVSLCARYPEKRFVPDGNRISWDSEIGFTLPSYMISYAGMVFCEAKINDETYQSIMYIVVVVGYRIYDVILSPPHEIELSAGEKLVLNCTARTELNVGLDFTWHSPPSKSHHKKIVNRDVKPFPGTVAKMFLSTLTIESVTKSDQGEYTCVASSGRMIKRNRTFVRVHTKPFIAFGSARGTSEKKELRKVAHLTGKSNSRSMPLEWEDTYGIVLLSGVKYKKGGLVINETGLYFVYSKVYFRGQSCNNLPLSHKVYMRNSKYPQDLVMMEGKMMSYCTTGQMWARSSYLGAVFNLTSADHLYVNVSELSLVNFEESQTFFGLYKL
For B2, the “cell death with exogenous VEGF” value in data set [3] was “drastic increase in cell death; also recorded: drastically increased cell death”. For the same molecule, in the data set with Jurkat cells [4] (25 μL/well conditioned medium, varying amounts of VEGF-165, 24 hours), the “killing of Jurkat cells as function of VEGF amount” value is reported as “dependent on the amount of VEGF”. In addition, in the data set on Jurkat cells [4] (increasing volumes of Cos-7 conditioned medium, with or without 2 nM VEGF-165, 32 hours), the “killing of Jurkat cells (viable cells per hemocytometer field)” value was “killing of Jurkat cells by FlkFasL in a VEGF-dependent manner”. Further, the “cytotoxicity (LDH release) with exogenous VEGF” value in data set [5] (25 μL conditioned medium plus 2 nM VEGF-165, 48 hours) is given as “drastic increase in cytotoxicity”. Further, the “cytotoxicity (LDH release), endogenous VEGF only” value in data set [5] (25 μL conditioned medium, no exogenous VEGF, 48 hours) is reported as “induced cytotoxicity”. Moreover, in the data set with Jurkat cells [6] (1 or 5 μL conditioned medium, with or without 2 nM VEGF-165, 60 minutes), the “induction of apoptosis (Annexin V-positive/propidium iodide-negative cells)” value is on record as “induction of apoptosis by FlkFasL in a VEGF-dependent manner”. In addition, in the data set on Jurkat cells [6] (conditioned medium in the absence of VEGF), the “induction of apoptosis in the absence of VEGF” value was “did not increase apoptotic induction”.
